From publication PMC10615762 come the findings set out here.

The test concerns the target Fusion protein of Nipah virus (F-clamp) (Nipah virus). Kind of test: SEC. For orientation: In gel filtration, larger molecules generally elute earlier.

For Fusion protein of Nipah virus (F-clamp), the stoichiometry N (as a rule, a count of units in the complex or per binding partner) came to 3.
